For series [1], the target named is PaRrp4-exosome (Pyrococcus abyssi) (UniProt Q9V120).
Series [2] addresses PaCsl4-exosome (Pyrococcus abyssi).
Series [3] deals with PaRrp4-exosome (Pyrococcus abyssi) (UniProt Q9V120). This is another data set of the same source.
Series [4] addresses RNase PH ring (PaRrp41-PaRrp42 complex) (Pyrococcus abyssi).
In series [5] the target is PaCsl4-exosome (Pyrococcus abyssi). The source holds these as a separate data set.
Series [6] addresses T1, PaRrp41;PaRrp42 (Pyrococcus abyssi;Pyrococcus abyssi, UniProt Q9V119;Q9V118 1-249;1-274, |).
T1 sequence 1: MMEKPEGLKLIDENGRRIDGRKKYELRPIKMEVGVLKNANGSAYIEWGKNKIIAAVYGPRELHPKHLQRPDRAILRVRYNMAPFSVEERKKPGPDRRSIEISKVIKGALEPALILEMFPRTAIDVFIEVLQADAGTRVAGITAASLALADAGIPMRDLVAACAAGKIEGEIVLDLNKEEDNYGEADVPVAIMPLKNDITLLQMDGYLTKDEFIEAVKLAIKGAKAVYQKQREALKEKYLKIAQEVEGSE
T1 sequence 2: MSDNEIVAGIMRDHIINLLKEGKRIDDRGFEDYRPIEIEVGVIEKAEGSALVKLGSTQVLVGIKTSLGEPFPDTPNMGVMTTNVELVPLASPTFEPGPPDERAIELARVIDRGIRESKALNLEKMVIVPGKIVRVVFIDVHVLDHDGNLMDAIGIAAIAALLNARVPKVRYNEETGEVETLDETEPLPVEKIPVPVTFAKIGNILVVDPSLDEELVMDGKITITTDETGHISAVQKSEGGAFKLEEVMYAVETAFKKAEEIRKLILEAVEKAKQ
Description: EMSA; no phosphate added; PaRrp4-exosome binds 3-fold more efficiently; some RNA degradation; 1 pmol RNA in 20 ul; 20 mM Tris-HCl pH 8.0, 20 mM KCl, 2 mM MgCl2, 1 mM DTT, 100 ug/ml BSA, 0.8 U RNasin (or conditions of earlier work, ref 21), 37 C, 30 min. Particulars: protein: recombinant;recombinant; tags: pET29a vector;pAE vector; chain copies: 3;3; label: 5'-32P; single strand. Background: A gel shift assay detects complexes by their altered migration in electrophoresis.

The target in series [7] is T2, PaSBDS (Pyrococcus abyssi, UniProt Q9V121 1-236). Description: EMSA; 200 pmol; smear, low stability complex; 1 pmol RNA in 20 ul; 20 mM Tris-HCl pH 8.0, 20 mM KCl, 2 mM MgCl2, 1 mM DTT, 100 ug/ml BSA, 0.8 U RNasin (or conditions of earlier work, ref 21), 37 C, 30 min. Particulars: protein: recombinant; tags: pET-28a vector, Ni-NTA purified (His tag); label: 5'-32P; single strand.

Series [8] has as its target T3, PaRrp41;PaRrp42;PaRrp4 (Pyrococcus abyssi;Pyrococcus …, UniProt Q9V119;Q9V118;Q9V120 1-249;1-274;1-265, ||).
T3 sequence 1: T1 sequence 1
T3 sequence 2: T1 sequence 2
T3 sequence 3: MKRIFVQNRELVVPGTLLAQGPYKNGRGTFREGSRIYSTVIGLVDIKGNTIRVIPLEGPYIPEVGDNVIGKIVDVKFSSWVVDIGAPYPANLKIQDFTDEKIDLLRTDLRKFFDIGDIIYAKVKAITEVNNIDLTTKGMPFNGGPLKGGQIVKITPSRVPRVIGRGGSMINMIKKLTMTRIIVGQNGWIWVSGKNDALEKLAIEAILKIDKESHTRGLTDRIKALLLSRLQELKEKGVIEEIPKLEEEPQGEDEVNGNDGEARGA
Description: EMSA; no phosphate added; 9-fold vs PaCsl4-exosome; 1 pmol RNA in 20 ul; 20 mM Tris-HCl pH 8.0, 20 mM KCl, 2 mM MgCl2, 1 mM DTT, 100 ug/ml BSA, 0.8 U RNasin (or conditions of earlier work, ref 21), 37 C, 30 min. Particulars: protein: recombinant;recombinant;recombinant; tags: pET29a vector;pAE vector;; chain copies: 3;3;3; label: 5'-32P; single strand.

The target in series [9] is T4, PaRrp41;PaRrp42;PaCsl4 (Pyrococcus abyssi;Pyrococcus …, UniProt Q9V119;Q9V118;Q9V2M2 1-249;1-274;1-199, ||).
T4 sequence 1: T1 sequence 1
T4 sequence 2: T1 sequence 2
T4 sequence 3: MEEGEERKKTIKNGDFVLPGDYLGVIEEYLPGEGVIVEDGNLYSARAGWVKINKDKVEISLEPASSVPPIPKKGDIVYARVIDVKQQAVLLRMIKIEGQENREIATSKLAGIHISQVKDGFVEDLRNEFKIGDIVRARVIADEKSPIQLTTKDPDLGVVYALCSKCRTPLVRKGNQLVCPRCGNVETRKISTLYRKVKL
Description: EMSA; no phosphate added; 1 pmol RNA in 20 ul; 20 mM Tris-HCl pH 8.0, 20 mM KCl, 2 mM MgCl2, 1 mM DTT, 100 ug/ml BSA, 0.8 U RNasin (or conditions of earlier work, ref 21), 37 C, 30 min. Particulars: protein: recombinant;recombinant;recombinant; tags: pET29a vector;pAE vector;pET28a vector; chain copies: 3;3;3; label: 5'-32P; single strand.

Series [10] deals with T2, PaSBDS. Description: EMSA; 50-400 pmol; 1 pmol RNA in 20 ul; 20 mM Tris-HCl pH 8.0, 20 mM KCl, 2 mM MgCl2, 1 mM DTT, 100 ug/ml BSA, 0.8 U RNasin (or conditions of earlier work, ref 21), 37 C, 30 min. Particulars: protein: recombinant, tags: pET-28a vector, Ni-NTA purified (His tag), label: 5'-32P.
Series [11] concerns the target T3, PaRrp41;PaRrp42;PaRrp4. Description: EMSA; 10 mM NaH2PO4, 65 C, 15 min; 1 pmol RNA in 20 ul; 20 mM Tris-HCl pH 8.0, 20 mM KCl, 2 mM MgCl2, 1 mM DTT, 100 ug/ml BSA, 0.8 U RNasin (or conditions of earlier work, ref 21), 37 C, 30 min. Particulars: protein: recombinant;recombinant;recombinant; tags: pET29a vector;pAE vector;; chain copies: 3;3;3; label: 5'-32P; can form intra- and inter-strand base pairs of low stability.

Series [12] deals with T4, PaRrp41;PaRrp42;PaCsl4. The description is as above. Particulars: protein: recombinant;recombinant;recombinant; tags: pET29a vector;pAE vector;pET28a vector; chain copies: 3;3;3; label: 5'-32P; can form intra- and inter-strand base pairs of low stability.
Series [13] has as its target T1, PaRrp41;PaRrp42. Description: EMSA; 10 mM NaH2PO4, 65 C, 15 min; less efficient than holo-exosomes; 1 pmol RNA in 20 ul; 20 mM Tris-HCl pH 8.0, 20 mM KCl, 2 mM MgCl2, 1 mM DTT, 100 ug/ml BSA, 0.8 U RNasin (or conditions of earlier work, ref 21), 37 C, 30 min. To be noted: protein: recombinant;recombinant; tags: pET29a vector;pAE vector; chain copies: 3;3; label: 5'-32P; can form intra- and inter-strand base pairs of low stability.

Turning to PaNip7 (natural protein), the inhibition of the RNase activity on 14-mer poly-rA (1, 5 or 10 pmol complex, 65°C, 10 mM NaH2PO4) by 100 pmol PaNip7 in series [1] is 3.8 fold; in [2] it was 6.1 fold. Moreover, the decrease in poly-rA binding by the exosome complex (EMSA, 1-20 pmol complex) in the presence of 100 pmol PaNip7 was determined as 40 fold in series [3], 3 fold in series [4] and 20 fold in series [5].
Turning to AAAAAAAAAAAAAA (ssRNA) [poly-rA 14-mer], the binding result with PaRrp41;PaRrp42 [6] and in the series with PaSBDS [7] was “binds” in each case. Also, the binding signal with PaRrp41;PaRrp42;PaRrp4 [8] is 3 fold vs RNase PH ring; in the series with PaRrp41;PaRrp42;PaCsl4 [9], 9 fold less efficient than PaRrp4-exosome.
For the molecule CCCCCCCCCCCCC (ssRNA) [poly-rC 13-mer], the binding result with PaSBDS [10] (single strand) was “no binding”.
On to UUAUUAUUUAUUUAUUAUUUA (ssRNA) [poly-rAU 21-mer], for which the binding result is reported as “binds” in the series with PaRrp41;PaRrp42;PaRrp4 [11]; “binds” in the series with PaRrp41;PaRrp42;PaCsl4 [12]; “binds” with PaRrp41;PaRrp42 [13]; “binds” with PaSBDS [10] (can form intra- and inter-strand base pairs of low stability).

For the origin of these results see publication PMC2890523, “Identification of archaeal proteins that affect the exosome function in vitro”.
